The record followed here is patent EP4506361A1 (Biotheus Inc., dated 2025).

The target of assay [1] is T1, human c-Met on HEK293T cells overexpressing human c-Met (HEK293-Hu c-Met) (human, UniProt P08581 25-1390).
T1 construct: whole, on cells; also called human c-Met overexpression cells
Kind of assay: flow cytometry on HEK293-Hu c-Met cells, first EC50 column.

In assay [2] the target is T1, human c-Met on HEK293T cells …. Kind of assay: flow cytometry on HEK293-Hu c-Met cells.
Assay [3] has as its target T2, rhesus c-Met on HEK293T cells overexpressing rhesus c-Met (HEK293-Rhe c-Met) (rhesus monkey, UniProt F7H1K4 25-1381).
T2 construct: also called rhesus monkey c-Met
Briefly: flow cytometry on HEK293-Rhe c-Met cells, first EC50 column.

Assay [4] deals with T2, rhesus c-Met on HEK293T cells …. Briefly: flow cytometry on HEK293-Rhe c-Met cells.
Assay [5] concerns the target cynomolgus monkey c-Met protein (purchased from AcroBiosystems) (cynomolgus monkey, UniProt A0A2K5UM36 25-932). Kind of assay: BLI (ForteBio), antibody on AHQ sensor, cynomolgus monkey c-Met protein in solution.
In assay [6] the target is T3, human c-Met protein (purchased from AcroBiosystems) (human, UniProt P08581 25-932).
T3 construct: Soluble antigen of the ForteBio assay; also called human c-Met antigen
T3 sequence (P08581 25-932 limits assumed): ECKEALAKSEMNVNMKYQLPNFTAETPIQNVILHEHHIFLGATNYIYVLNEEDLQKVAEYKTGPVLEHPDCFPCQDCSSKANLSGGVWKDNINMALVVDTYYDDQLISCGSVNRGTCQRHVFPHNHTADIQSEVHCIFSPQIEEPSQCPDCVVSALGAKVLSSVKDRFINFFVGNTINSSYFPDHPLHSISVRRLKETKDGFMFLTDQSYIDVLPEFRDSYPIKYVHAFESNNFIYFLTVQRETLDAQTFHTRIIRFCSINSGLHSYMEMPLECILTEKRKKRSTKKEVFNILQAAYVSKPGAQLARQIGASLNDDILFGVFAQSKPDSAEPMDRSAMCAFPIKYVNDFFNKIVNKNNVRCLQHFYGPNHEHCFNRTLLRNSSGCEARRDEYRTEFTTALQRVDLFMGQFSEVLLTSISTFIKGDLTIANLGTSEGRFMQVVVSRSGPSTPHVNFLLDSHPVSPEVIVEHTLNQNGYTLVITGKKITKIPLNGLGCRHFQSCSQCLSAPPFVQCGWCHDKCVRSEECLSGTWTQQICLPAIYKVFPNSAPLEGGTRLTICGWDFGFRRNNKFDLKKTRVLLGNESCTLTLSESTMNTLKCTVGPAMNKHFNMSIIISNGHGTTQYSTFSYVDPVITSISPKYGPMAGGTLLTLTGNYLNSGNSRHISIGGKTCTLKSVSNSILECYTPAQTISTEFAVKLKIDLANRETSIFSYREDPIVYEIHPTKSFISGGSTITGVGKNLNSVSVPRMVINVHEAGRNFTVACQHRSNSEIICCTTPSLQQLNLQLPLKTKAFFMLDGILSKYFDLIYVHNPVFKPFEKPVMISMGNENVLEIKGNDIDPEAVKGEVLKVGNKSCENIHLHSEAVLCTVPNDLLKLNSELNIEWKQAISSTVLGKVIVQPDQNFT
Briefly: BLI (ForteBio), antibody on AHQ sensor, 100 nM human c-Met antigen, 1:1 model.

T2 sequence (F7H1K4 entry or part of it limits assumed, form in doubt): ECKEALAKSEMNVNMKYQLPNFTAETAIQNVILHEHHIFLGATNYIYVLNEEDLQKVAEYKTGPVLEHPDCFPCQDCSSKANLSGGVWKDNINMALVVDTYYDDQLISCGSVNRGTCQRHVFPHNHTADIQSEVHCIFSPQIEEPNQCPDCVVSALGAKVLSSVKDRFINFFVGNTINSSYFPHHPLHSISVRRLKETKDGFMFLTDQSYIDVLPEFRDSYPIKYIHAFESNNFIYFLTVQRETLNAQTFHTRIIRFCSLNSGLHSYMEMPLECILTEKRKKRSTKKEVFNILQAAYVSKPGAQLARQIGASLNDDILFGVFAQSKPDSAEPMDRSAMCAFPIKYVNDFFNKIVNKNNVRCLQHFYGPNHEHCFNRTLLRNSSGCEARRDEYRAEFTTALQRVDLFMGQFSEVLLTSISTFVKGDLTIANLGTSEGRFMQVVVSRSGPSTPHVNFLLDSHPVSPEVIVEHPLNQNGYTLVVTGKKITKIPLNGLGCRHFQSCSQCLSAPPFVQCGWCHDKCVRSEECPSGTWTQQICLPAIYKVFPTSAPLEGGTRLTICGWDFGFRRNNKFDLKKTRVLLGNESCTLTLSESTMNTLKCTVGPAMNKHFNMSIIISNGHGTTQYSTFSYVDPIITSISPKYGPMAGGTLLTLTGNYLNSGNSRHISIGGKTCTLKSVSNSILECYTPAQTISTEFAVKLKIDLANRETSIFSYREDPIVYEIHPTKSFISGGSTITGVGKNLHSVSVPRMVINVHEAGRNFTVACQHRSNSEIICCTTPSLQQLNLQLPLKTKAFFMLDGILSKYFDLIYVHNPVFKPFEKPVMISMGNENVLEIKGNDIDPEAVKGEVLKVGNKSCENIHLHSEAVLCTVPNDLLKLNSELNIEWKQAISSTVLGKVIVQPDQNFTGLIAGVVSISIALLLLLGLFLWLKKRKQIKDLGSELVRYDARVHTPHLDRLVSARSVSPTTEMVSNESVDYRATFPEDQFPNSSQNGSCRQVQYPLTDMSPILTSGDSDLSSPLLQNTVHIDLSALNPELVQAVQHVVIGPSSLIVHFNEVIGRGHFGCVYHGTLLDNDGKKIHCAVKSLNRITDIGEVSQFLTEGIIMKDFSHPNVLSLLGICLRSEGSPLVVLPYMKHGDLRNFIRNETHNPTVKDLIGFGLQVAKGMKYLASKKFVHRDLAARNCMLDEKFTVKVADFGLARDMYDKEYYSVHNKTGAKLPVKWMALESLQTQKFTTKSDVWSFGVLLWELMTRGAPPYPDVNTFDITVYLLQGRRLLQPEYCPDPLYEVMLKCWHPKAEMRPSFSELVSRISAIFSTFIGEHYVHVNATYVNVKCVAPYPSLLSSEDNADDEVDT
T1 sequence (P08581 25-1390): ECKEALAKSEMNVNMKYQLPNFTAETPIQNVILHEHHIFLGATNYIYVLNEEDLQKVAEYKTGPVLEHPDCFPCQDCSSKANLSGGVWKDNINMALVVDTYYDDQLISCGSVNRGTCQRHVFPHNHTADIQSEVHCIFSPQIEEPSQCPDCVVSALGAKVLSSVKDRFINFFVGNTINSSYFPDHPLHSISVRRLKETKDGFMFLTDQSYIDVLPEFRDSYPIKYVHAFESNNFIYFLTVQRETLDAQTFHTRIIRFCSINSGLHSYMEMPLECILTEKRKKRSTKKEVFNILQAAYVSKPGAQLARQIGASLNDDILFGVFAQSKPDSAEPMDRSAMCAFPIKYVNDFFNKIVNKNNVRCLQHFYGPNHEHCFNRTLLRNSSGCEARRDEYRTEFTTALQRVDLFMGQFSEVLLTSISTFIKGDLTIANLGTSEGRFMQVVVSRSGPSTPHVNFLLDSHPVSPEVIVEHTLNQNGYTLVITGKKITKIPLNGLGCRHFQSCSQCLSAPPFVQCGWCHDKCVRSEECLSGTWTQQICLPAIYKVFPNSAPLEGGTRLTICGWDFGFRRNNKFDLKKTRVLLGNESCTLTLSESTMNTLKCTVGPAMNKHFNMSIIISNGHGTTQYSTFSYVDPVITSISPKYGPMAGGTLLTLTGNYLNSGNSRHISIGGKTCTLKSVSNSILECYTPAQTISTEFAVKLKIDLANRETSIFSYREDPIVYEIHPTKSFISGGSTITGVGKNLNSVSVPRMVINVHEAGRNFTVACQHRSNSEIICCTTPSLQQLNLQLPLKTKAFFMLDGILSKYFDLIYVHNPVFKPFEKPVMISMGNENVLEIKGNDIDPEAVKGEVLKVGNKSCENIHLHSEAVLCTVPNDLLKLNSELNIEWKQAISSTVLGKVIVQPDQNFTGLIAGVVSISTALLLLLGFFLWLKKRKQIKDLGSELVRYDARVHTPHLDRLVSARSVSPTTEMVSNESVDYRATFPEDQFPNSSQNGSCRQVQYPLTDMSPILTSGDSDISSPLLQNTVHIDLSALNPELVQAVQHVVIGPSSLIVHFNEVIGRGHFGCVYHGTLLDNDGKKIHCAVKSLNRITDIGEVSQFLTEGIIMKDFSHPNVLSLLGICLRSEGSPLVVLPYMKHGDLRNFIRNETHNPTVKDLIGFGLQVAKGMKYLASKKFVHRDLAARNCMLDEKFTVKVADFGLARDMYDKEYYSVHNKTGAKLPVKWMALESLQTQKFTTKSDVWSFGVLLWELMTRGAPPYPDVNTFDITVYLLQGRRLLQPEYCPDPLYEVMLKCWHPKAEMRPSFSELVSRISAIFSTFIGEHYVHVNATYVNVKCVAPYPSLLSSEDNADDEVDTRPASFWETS
Chain of cynomolgus monkey c-Met protein (purchased from AcroBiosystems) (A0A2K5UM36 entry or part of it limits assumed, form in doubt): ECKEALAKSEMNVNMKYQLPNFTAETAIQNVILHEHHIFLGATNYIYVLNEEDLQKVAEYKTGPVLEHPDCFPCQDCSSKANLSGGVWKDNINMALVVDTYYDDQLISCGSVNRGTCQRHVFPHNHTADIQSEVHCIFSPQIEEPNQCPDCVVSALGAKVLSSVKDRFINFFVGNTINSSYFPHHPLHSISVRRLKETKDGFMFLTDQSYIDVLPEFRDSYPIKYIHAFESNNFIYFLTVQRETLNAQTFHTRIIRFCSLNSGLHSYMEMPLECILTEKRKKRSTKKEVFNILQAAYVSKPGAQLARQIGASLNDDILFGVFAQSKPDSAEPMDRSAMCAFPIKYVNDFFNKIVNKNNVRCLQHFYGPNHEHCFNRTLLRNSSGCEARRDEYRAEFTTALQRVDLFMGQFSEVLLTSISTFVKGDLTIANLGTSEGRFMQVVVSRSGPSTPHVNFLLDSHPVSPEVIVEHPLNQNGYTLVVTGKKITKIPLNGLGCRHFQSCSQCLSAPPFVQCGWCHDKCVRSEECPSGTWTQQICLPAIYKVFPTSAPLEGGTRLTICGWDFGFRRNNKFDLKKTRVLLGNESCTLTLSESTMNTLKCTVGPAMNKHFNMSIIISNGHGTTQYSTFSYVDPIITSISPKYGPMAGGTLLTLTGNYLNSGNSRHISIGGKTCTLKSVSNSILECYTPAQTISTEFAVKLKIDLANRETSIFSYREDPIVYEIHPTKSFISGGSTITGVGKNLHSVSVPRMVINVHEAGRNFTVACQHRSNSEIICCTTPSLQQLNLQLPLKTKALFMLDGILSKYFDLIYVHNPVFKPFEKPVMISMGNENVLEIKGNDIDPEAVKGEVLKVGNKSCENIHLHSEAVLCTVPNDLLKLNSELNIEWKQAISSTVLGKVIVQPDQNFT

B1: Onartuzumab (antibody, human IgG1, kappa, L234A L235A)
heavy: not shown
light: DIQMTQSPSSLSASVGDRVTITCKSSQSLLYTSSQKNYLAWYQQKPGKAPKLLIYWASTRESGVPSRFSGSGSGTDFTLTISSLQPEDFATYYCQQYYAYPWTFGQGTKVEIKRTVAAPSVFIFPPSDEQLKSGTASVVCLLNNFYPREAKVQWKVDNALQSGNSQESVTEQDSKDSTYSLSSTLTLSKADYEKHKVYACEVTHQGLSSPVTKSFNRGEC
chain: not shown
notes: Control antibody, made from three plasmids in Expi-CHO cells; also called control antibody onartuzumab; antibody onartuzumab
In the case of B1, the EC50 in assay [1] is 1.03 nM; in assay [2], 0.54 nM; in assay [3] it was 0.97 nM; in assay [4], 1.24 nM.

B2: anti-c-Met single-arm antibody 223 (antibody, human IgG1, kappa, L234A L235A)
heavy: not shown
light: DIQLTQSPSSLSASVGDRVTITCRASQSIITYLNWYQQKPGKAPKLLIYAASSLQSGVPSRFSGSGSGTDFTLNISSLQPEDFATYYCQQANSLPYTFGQGTKVEIKRTVAAPSVFIFPPSDEQLKSGTASVVCLLNNFYPREAKVQWKVDNALQSGNSQESVTEQDSKDSTYSLSSTLTLSKADYEKHKVYACEVTHQGLSSPVTKSFNRGEC
chain: not shown
As for B2, in assay [5], the Kd stood at 16.2 nM, the koff is 0.00109 s⁻¹ and the kon is 67300 M⁻¹ s⁻¹. In assay [6], this molecule registered a Kd of 9.76 nM, a koff of 0.00163 s⁻¹ and a kon of 167000 M⁻¹ s⁻¹. The molecule also had an EC50 in assay [2] of 0.765 nM. The concentration giving a half-maximal response (EC50) in assay [4] came to 1.06 nM.

B3: anti-c-Met single-arm antibody 22 (antibody, human IgG1, kappa, L234A L235A)
heavy: not shown
light: DIVMTQSPSSVSASVGDRVTITCRASQGISSWLAWYQQKPGKAPKLLIYAASSLQSGVPSKFSGSGSGTEFTLTISSLQPEDFATYFCQQAYGFPLTFGGGTKVEIKRTVAAPSVFIFPPSDEQLKSGTASVVCLLNNFYPREAKVQWKVDNALQSGNSQESVTEQDSKDSTYSLSSTLTLSKADYEKHKVYACEVTHQGLSSPVTKSFNRGEC
chain: not shown
In assay [5], B3 returned a Kd of 19 nM, a koff of 0.00259 s⁻¹ and a kon of 136000 M⁻¹ s⁻¹. In assay [1], this molecule displayed an EC50 of 0.947 nM. Besides, in assay [6], the Kd was determined as 4.29 nM, the koff came to 0.000548 s⁻¹ and the on-rate (kon) was 128000 M⁻¹ s⁻¹. In addition, in assay [3], the EC50 was determined as 0.726 nM.

B4: anti-c-Met single-arm antibody 187 (antibody, human IgG1, kappa, L234A L235A)
heavy: not shown
light: DIVMTQSPSSVSASVGDRVTITCRASQGISSWLAWYQQKPGKAPNLLIYAASNLPSGVPSRFSGSGSGTVFTLTISSLQPEDFATYYCQQSNSFPLTFGGGTKVEIKRTVAAPSVFIFPPSDEQLKSGTASVVCLLNNFYPREAKVQWKVDNALQSGNSQESVTEQDSKDSTYSLSSTLTLSKADYEKHKVYACEVTHQGLSSPVTKSFNRGEC
chain: not shown
As to B4, in assay [5], the affinity, expressed as Kd, was 2.92 nM; the koff came out at 0.000947 s⁻¹; the kon amounted to 324000 M⁻¹ s⁻¹. In assay [6], this molecule returned a Kd of 1.68 nM, a koff of 0.000369 s⁻¹ and a kon of 220000 M⁻¹ s⁻¹. Also, the EC50 in assay [2] was determined as 0.732 nM. In assay [4], this molecule yielded an EC50 of 0.592 nM.

B5: anti-c-Met single-arm antibody 136 (antibody, human IgG1, kappa, L234A L235A)
heavy: not shown
light: DIVMTQSPSSVSASVGDRVTITCRASQGISSWLAWYQQKPGKAPKLLIYAVSSLQSGVPSRFSGSGSGTDFTLTISSLQPEDFATYFCQQANSFPLTFGGGTKVEIKRTVAAPSVFIFPPSDEQLKSGTASVVCLLNNFYPREAKVQWKVDNALQSGNSQESVTEQDSKDSTYSLSSTLTLSKADYEKHKVYACEVTHQGLSSPVTKSFNRGEC
chain: not shown
On to B5, for which the values for the Kd in assay [5] and in assay [6] were 1.16 nM and 0.0293 nM, respectively. The koff in assay [5] came to 0.000426 s⁻¹; in assay [6] it was 6.71e-06 s⁻¹. For the same molecule, the kon stood at 369000 M⁻¹ s⁻¹ in assay [5] and 229000 M⁻¹ s⁻¹ in assay [6]. In addition, the EC50 in assay [1] came out at 0.452 nM; in assay [3], 0.306 nM.

B6: anti-c-Met single-arm antibody 74 (antibody, human IgG1, kappa, L234A L235A)
heavy: not shown
light: DIVMTQSPSSVSASVGDRVTITCRASQGINSWLAWYQQKPGKAPNLLIYAASSLQSGVPSRFSGRGSGTDFSLTISSLHPEDFATYYCQQAKGFPLTFGGGTKVEIKRTVAAPSVFIFPPSDEQLKSGTASVVCLLNNFYPREAKVQWKVDNALQSGNSQESVTEQDSKDSTYSLSSTLTLSKADYEKHKVYACEVTHQGLSSPVTKSFNRGEC
chain: not shown
For the molecule B6, the Kd in assay [5] stood at 9.7 nM; in assay [6] it was 6.01 nM. Further, the koff in assay [5] amounted to 0.0026 s⁻¹; in assay [6], 0.00108 s⁻¹. For the same molecule, the kon in assay [5] is 269000 M⁻¹ s⁻¹; in assay [6], 179000 M⁻¹ s⁻¹. The EC50 was 1.9 nM in assay [1] and 1.46 nM in assay [3].

B7: anti-c-Met single-arm antibody 221 (antibody, human IgG1, kappa, L234A L235A)
heavy: not shown
light: EIVLTQSPGTLSLSPGERATLSCRASQSVSSSYLAWYQQKPGQAPRLLIYGPSSRATGIPDRFSGSGSGTDFTLTISSLQPADFASYYCQQSYITPYTFGQGTKVEIKRTVAAPSVFIFPPSDEQLKSGTASVVCLLNNFYPREAKVQWKVDNALQSGNSQESVTEQDSKDSTYSLSSTLTLSKADYEKHKVYACEVTHQGLSSPVTKSFNRGEC
chain: not shown
In assay [5], B7 came in with a Kd of 63.8 nM, a koff of 0.00192 s⁻¹ and a kon of 30100 M⁻¹ s⁻¹. Besides, in assay [6], the Kd was 2.01 nM, the koff amounted to 0.00037 s⁻¹ and the kon came out at 184000 M⁻¹ s⁻¹. In assay [2], this molecule displayed an EC50 of 1.73 nM. In assay [4], this molecule displayed an EC50 of 1.48 nM.

B8: anti-c-Met single-arm antibody 23 (antibody, human IgG1, kappa, L234A L235A)
heavy: not shown
light: DIVMTQSPSSLSASVGDRVTITCRASQSFSDYLNWYRQKPGKAPKLLLFAASSLQSGVPSRFSGSGSGTDFTLTISSLQPEDFATYYCQQSYSPPYTFGQGTKLEIKRTVAAPSVFIFPPSDEQLKSGTASVVCLLNNFYPREAKVQWKVDNALQSGNSQESVTEQDSKDSTYSLSSTLTLSKADYEKHKVYACEVTHQGLSSPVTKSFNRGEC
chain: not shown
Consider B8, for which, in assay [5], the affinity, expressed as Kd, was 26.5 nM; the koff was 0.00151 s⁻¹; the kon came out at 56900 M⁻¹ s⁻¹. A half-maximal effect in assay [1] (EC50) was put at 0.821 nM. Moreover, in assay [6], the Kd worked out at 0.596 nM, the koff came out at 9.5e-05 s⁻¹ and the kon was determined as 160000 M⁻¹ s⁻¹. This molecule also had an EC50 in assay [3] of 0.746 nM.

B9: Amivantamab single-arm antibody (antibody, human IgG1, kappa, L234A L235A)
heavy: not shown
light: DIQMTQSPSSVSASVGDRVTITCRASQGISNWLAWFQHKPGKAPKLLIYAASSLLSGVPSRFSGSGSGTDFTLTISSLQPEDFATYYCQQANSFPITFGQGTRLEIKRTVAAPSVFIFPPSDEQLKSGTASVVCLLNNFYPREAKVQWKVDNALQSGNSQESVTEQDSKDSTYSLSSTLTLSKADYEKHKVYACEVTHQGLSSPVTKSFNRGEC
chain: not shown
notes: also called control antibody Amivantamab
For B9, the EC50 in assay [1] is 0.323 nM; in assay [2], 0.396 nM; in assay [3], 0.241 nM; in assay [4], 0.2 nM.

B10: LY2875358 single-arm antibody (antibody, human IgG1, kappa, L234A L235A)
heavy: not shown
light: DIQMTQSPSSLSASVGDRVTITCSVSSSVSSIYLHWYQQKPGKAPKLLIYSTSNLASGVPSRFSGSGSGTDFTLTISSLQPEDFATYYCQVYSGYPLTFGGGTKVEIKRTVAAPSVFIFPPSDEQLKSGTASVVCLLNNFYPREAKVQWKVDNALQSGNSQESVTEQDSKDSTYSLSSTLTLSKADYEKHKVYACEVTHQGLSSPVTKSFNRGEC
chain: not shown
notes: also called control antibody LY2875358
With B10, the EC50 turned out to be 1.25 nM in assay [1], 1.39 nM in assay [2], 0.868 nM in assay [3] and 0.749 nM in assay [4].
